# Results as given in patent US20170355757A1 (Regeneron, published 2017).
# T1: monkey C5-mmh (monkey, UniProt P01031 19-1676 (human entry), limits assumed)
# T1 construct: Recombinant monkey C5 with a C-terminal myc-myc-hexahistidine tag
# T1 chain: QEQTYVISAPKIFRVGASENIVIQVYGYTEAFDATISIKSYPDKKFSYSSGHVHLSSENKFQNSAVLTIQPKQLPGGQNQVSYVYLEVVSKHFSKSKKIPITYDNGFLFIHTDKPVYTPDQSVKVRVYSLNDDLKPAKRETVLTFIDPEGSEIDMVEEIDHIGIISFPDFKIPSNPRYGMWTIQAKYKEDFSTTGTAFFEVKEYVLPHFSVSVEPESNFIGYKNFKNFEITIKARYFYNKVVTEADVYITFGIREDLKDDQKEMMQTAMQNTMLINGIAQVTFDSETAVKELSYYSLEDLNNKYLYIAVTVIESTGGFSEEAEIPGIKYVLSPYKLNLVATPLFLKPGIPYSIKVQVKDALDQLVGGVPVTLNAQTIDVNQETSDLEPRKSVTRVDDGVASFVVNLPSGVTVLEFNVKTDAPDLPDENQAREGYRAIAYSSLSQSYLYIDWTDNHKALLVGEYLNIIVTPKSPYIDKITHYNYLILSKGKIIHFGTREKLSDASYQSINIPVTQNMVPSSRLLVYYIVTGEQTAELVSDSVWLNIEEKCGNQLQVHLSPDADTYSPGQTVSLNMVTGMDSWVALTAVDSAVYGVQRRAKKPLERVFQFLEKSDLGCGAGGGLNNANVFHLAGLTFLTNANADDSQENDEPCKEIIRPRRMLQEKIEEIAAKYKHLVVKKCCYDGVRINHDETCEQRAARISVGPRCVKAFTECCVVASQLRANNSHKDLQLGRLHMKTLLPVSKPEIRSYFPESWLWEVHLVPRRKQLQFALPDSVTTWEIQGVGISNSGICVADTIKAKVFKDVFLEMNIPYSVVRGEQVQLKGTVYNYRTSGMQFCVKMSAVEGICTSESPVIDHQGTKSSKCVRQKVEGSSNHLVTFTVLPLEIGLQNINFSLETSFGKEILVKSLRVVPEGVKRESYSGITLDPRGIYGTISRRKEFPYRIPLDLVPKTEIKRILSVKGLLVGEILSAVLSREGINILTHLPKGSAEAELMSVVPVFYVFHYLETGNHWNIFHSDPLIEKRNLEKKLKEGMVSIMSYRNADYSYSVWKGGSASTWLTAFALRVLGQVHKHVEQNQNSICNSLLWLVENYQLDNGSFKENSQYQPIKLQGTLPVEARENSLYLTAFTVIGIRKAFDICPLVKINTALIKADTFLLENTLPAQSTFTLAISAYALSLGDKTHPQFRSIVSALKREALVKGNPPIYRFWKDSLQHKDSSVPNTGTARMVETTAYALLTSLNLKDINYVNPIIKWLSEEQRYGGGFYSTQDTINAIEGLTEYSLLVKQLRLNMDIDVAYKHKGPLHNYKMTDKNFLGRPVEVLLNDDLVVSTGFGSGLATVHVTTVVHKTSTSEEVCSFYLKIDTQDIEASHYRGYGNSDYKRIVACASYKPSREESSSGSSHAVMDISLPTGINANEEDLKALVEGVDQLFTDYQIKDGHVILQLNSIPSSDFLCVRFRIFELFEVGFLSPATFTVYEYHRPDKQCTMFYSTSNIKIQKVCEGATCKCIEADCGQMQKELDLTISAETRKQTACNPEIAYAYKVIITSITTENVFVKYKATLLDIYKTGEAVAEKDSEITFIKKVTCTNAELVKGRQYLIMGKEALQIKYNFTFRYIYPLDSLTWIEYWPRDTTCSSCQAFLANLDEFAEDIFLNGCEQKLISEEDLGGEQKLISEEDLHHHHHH
# B1: H4H12175P (antibody, human IgG4, V domains shown)
# VH: EVQLVESGGGVVQPGGSLRLSCAASGFTFNDYAMHWVRQAPGKGLEWVSLISGDGGNTYYADSVKGRLTISRDNSKNSLYLQMNSLRTEDTALYYCAKDKGWNFGYFDLWGRGTLVTVSS
# VL: DIQMTQSPSSLSTSVGDRVTITCRASQNIDTYLNWYQQKPGKAPKLLIYDASSLQSGVPSRFSGSGSGTDFTLTITSLQPEDFATYYCQQNDNILHPLTFGGGTKVEIK
# notes: Human IgG4 Fc with S108P hinge mutation (H4H)
# B2: H4H12159P (antibody, human IgG4, V domains shown)
# VH: QVQLVESGGGVVQPGRSLRLSCGASGFTFSTYGMHWVRQAPGKGLEWVAVIWDDGNNKYYADSVKGRFTISRDNSKNTLYLQMNSLRAEDTAVYYCARDSEVAPVGDYWGQGTLVTVSS
# VL: DIQMTQSPSTLSASVGDRVTIICRASQSINRWLAWYQQKPGKAPKLLIYKASSLESGVPSRFSGSGSGTEFTLTISSLQPDDFAAYYCQQYNDYSYTFGQGTKLEIK
# notes: as for B1
# B3: H4H12164P (antibody, human IgG4, V domains shown)
# VH: EVQLVESGGGLVRSGGSLRLSCAASGFTFNRYAMTWVRQAPGKGLEWVSAISGSGSSTYYTDSVKGRFTISRDNSKNSVDLQMHSLRVEDTAIYYCARGTTVTTGYGMDVWGQGTTVTVSS
# VL: DIQMTQSPSSLSASVGDRVTFTCQASQDITNSLNWYQQKPGRAPKLLIYDASYLKAGVPSRFSGSGSGTDFTFTISSLQPEDIATYYCQQYDDLPYTFGQGTKLEIK
# notes: as for B1
# B4: H4H12168P (antibody, human IgG4, V domains shown)
# VH: QVQLVESGGGVVQPGGSLRLSCAASGFTFGGHAMHWVRQAPGKGLEWLAVISSDGSNKQYADSVKGRFTISRDNPKNTLYLQMNSLRVGDTAIYYCAKEVAPRYYYYGLDVWGQGTTVTVSS
# VL: DIQMTQSPSSLSASVGDRVTITCRASQDISNFLAWYQQKPGKVPKLLIYTASTLQSGVPSRFSGSGSGTDFTLTVSSLQPEDVATYYCQKYAGALTFGPGTKVDIK
# notes: as for B1
# Biological target: T2, human C5 R885C-mmh (human, UniProt P01031 19-1676)
# T2 construct: also called human C5 variant R885C
# Test: SPR, mAb captured via anti-hFc, 25C
# Protocol: (§1) Equilibrium dissociation constants (KD values) for C5 binding to purified anti-C5 antibodies were determined using a real-time surface plasmon resonance biosensor assay on a Biacore T200 instrument. The Biacore sensor surface was derivatized by amine coupling with a monoclonal mouse anti-human Fc antibody (GE Healthcare, # BR-1008-39) to capture anti-C5 antibodies expressed with human Fc constant regions. Biacore binding studies were conducted in HBST running buffer (0.01M HEPES pH 7.4, 0.15M NaCl, 3 mM EDTA, 0.05% v/v Surfactant P20).
# (§2) Human C5 was obtained from a commercial source (EMD). Other C5 reagents were expressed with a C-terminal myc-myc-hexahistidine tag (subsequently referred to as C5-mmh). […] Association of all the C5 reagents to each of the captured monoclonal antibodies was monitored for 3 minutes and their dissociation in HBST running buffer was monitored for 8 minutes. All the binding kinetics experiments were performed at either 25° C. or 37° C. Kinetic association (kₐ) and dissociation (kd) rate constants were determined by fitting the real-time sensorgrams to a 1:1 binding model using Scrubber 2.0c curve fitting software. Binding dissociation equilibrium constants (KD) and dissociative half-lives (t %) were calculated from the kinetic rate constants as: KD (M)=kd/kₐ and t_{1/2} (min)=In2/(60×kd)
Binder,100 nM Human C5 R885C-mmh Bound (RU),Kd,koff,kon,t1/2
B1,128 RU,190 nM,0.0155 s⁻¹,81800 M⁻¹ s⁻¹,1 min
B2,168 RU,0.289 nM,0.000169 s⁻¹,586000 M⁻¹ s⁻¹,68 min
B3,249 RU,1.19 nM,0.000182 s⁻¹,153000 M⁻¹ s⁻¹,63 min
B4,144 RU,3.27 nM,0.000199 s⁻¹,60900 M⁻¹ s⁻¹,58 min

# Biological target: T3, human C5 R885H-mmh (human, UniProt P01031 19-1676)
# T3 construct: also called human C5 variant R885H
# Test: SPR, mAb captured via anti-hFc, 25C
# Protocol: as §1, §2
Binder,100 nM Human C5 R885H-mmh Bound (RU),Kd,koff,kon,t1/2
B1,207 RU,10.9 nM,0.00198 s⁻¹,181000 M⁻¹ s⁻¹,6 min
B2,177 RU,0.25 nM,0.000176 s⁻¹,706000 M⁻¹ s⁻¹,66 min
B3,295 RU,1.19 nM,0.000187 s⁻¹,158000 M⁻¹ s⁻¹,62 min
B4,197 RU,4.05 nM,0.000214 s⁻¹,52900 M⁻¹ s⁻¹,54 min

# Biological target: T4, human C5 (human, UniProt P01031 19-1676)
# T4 construct: Bought human C5 (EMD #204888, said elsewhere to be purified from plasma); also called hC5; complement component 5
# Test: SPR, mAb captured via anti-hFc, dissociation at pH7.4 vs pH6.0, 25C
# Protocol: Effect of pH on the rate of dissociation of recombinant human C5 bound to purified anti-C5 monoclonal antibodies was determined using a real-time surface plasmon resonance biosensor using a Biacore T200 instrument. The Biacore sensor surface was first derivatized by amine coupling with a monoclonal mouse anti-human Fc antibody (GE, # BR-1008-39) to capture anti-C5 monoclonal antibodies expressed with human IgG4 Fc. All Biacore binding studies were performed using two running buffers PBS-T, pH7.4 (0.01M Na₂HPO₄/NaH₂PO₄, 0.15M NaCl, 0.05% v/v Tween-20, adjusted to pH7.4) and PBS-T, pH6.0 (0.01M Na₂HPO₄/NaH₂PO₄, 0.15M NaCl, 0.05% v/v Tween-20, adjusted to pH6.0). […] Binding dissociative half-lives (t %) were calculated from kd as: […]
row,Binder,t1/2 Ratio pH7.4/pH6.0
1,B1,0.9
2,B2,≤ 0.3
3,B3,0.3
4,B4,1.5

# Biological target: T2, human C5 R885C-mmh
# Test: SPR, mAb captured via anti-hFc, 37C
# Procedure, shortened: (§3)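 KD from kd/ka, obtained by 1:1 fitting of Biacore sensorgrams; C5 analytes flowed over anti-C5 mAbs held by immobilized anti-hFc antibody. Running buffer HBST pH 7.4 with EDTA and P20; 3 min association, 8 min dissociation.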
Binder,100 nM Human C5 R885C-mmh Bound (RU),Kd,koff,kon,t1/2
B1,4 RU,159 nM,0.0179 s⁻¹,112000 M⁻¹ s⁻¹,1 min
B2,68 RU,1.74 nM,0.000975 s⁻¹,561000 M⁻¹ s⁻¹,12 min
B3,64 RU,5.85 nM,0.00104 s⁻¹,177000 M⁻¹ s⁻¹,11 min
B4,21 RU,8.9 nM,0.000569 s⁻¹,63800 M⁻¹ s⁻¹,20 min

# Biological target: T3, human C5 R885H-mmh
# Test: SPR, mAb captured via anti-hFc, 37C
# Procedure, shortened: as §3
Binder,100 nM Human C5 R885H-mmh Bound (RU),Kd,koff,kon,t1/2
B1,30 RU,69.4 nM,0.0095 s⁻¹,137000 M⁻¹ s⁻¹,1 min
B2,82 RU,1.49 nM,0.000948 s⁻¹,638000 M⁻¹ s⁻¹,12 min
B3,68 RU,5.46 nM,0.00106 s⁻¹,195000 M⁻¹ s⁻¹,11 min
B4,29 RU,50.4 nM,0.00123 s⁻¹,24300 M⁻¹ s⁻¹,9 min

# Biological target: T1, monkey C5-mmh
# Test: SPR, mAb captured via anti-hFc, 37C
# Procedure, shortened: as §3
Binder,100 nM monkey C5-mmh Bound (RU),Kd,koff,kon,t1/2
B1,74 RU,15.6 nM,0.00276 s⁻¹,177000 M⁻¹ s⁻¹,4 min
B2,137 RU,0.133 nM,5.5e-05 s⁻¹,412000 M⁻¹ s⁻¹,210 min
B3,99 RU,6.3 nM,0.00117 s⁻¹,186000 M⁻¹ s⁻¹,10 min
B4,29 RU,12.7 nM,0.000676 s⁻¹,53300 M⁻¹ s⁻¹,17 min
